Experimental findings from article PMC4794390 are described below.

Substrate in this data set: Nc1nc2c(ncn2[C@@H]2O[C@H](CO)[C@@H](O)[C@H]2O)c(=O)[nH]1
Description: purified protein. In kind it is biochemical, Homo sapiens.

Setting [1] is: phosphate catalytic site (His257, Asn243, Glu201).

B1: purine nucleoside phosphorylase (PNP) (Homo sapiens) (protein)
chain: MENGYTYEDYKNTAEWLLSHTKHRPQVAIICGSGLGGLTDKLTQAQIFDYGEIPNFPRSTVPGHAGRLVFGFLNGRACVMMQGRFHMYEGYPLWKVTFPVRVFHLLGVDTLVVTNAAGGLNPKFEVGDIMLIRDHINLPGFSGQNPLRGPNDERFGDRFPAMSDAYDRTMRQRALSTWKQMGEQRELQEGTYVMVAGPSFETVAECRVLQKLGADAVGMSTVPEVIVARHCGLRVFGFSLITNKVIMDYESLEKANHEEVLAAGKQAAQKLEQFVSILMASIPLPDKAS
Broadly, the Km is the substrate concentration at which the rate is half of its maximum. The term kcat denotes the maximal rate divided by the concentration of active sites. The kcat/Km is the second-order rate constant that governs catalysis at low substrate concentration. In the case of B1, under setting [1], the Km is given as 63 ± 8 µM, the kcat stood at 8.8 ± 0.5 s⁻¹ and the catalytic efficiency (kcat/Km) came out at 140000 M⁻¹ s⁻¹.

B2: purine nucleoside phosphorylase (PNP) (Homo sapiens; E258D/L261A) (protein)
chain: MENGYTYEDYKNTAEWLLSHTKHRPQVAIICGSGLGGLTDKLTQAQIFDYGEIPNFPRSTVPGHAGRLVFGFLNGRACVMMQGRFHMYEGYPLWKVTFPVRVFHLLGVDTLVVTNAAGGLNPKFEVGDIMLIRDHINLPGFSGQNPLRGPNDERFGDRFPAMSDAYDRTMRQRALSTWKQMGEQRELQEGTYVMVAGPSFETVAECRVLQKLGADAVGMSTVPEVIVARHCGLRVFGFSLITNKVIMDYESLEKANHDEVAAAGKQAAQKLEQFVSILMASIPLPDKAS
On to B2, for which, under “phosphate catalytic site”, the Km is listed as 73 ± 13 µM, the catalytic constant (kcat) amounted to 4.2 ± 0.4 s⁻¹ and the specificity constant (kcat/Km) turned out to be 58000 M⁻¹ s⁻¹.
